Data set [1] addresses T1, Recombinant DPP-IV (Homo sapiens, UniProt P27487). Kind of data set: DPP-IV resistance assay by mass spectrometry. The procedure:
The peptides were then desalted and concentrated on a C18 peptide micro trap (Michrom Bioresources, Inc., Auburn, Calif.) prior to introduction to a LTQ FT™ mass spectrometer (Thermo-Electron Corp., Waltham, Mass.) via an autosampler (Michrom Bioresources, Inc.). Peptides were eluted from a C5 packed 75 μm fused silica pico-frit column (New Objective, Inc., Woburn, Mass.) using a 5-60% acetonitrile/water gradient over 50 minutes at a flow rate of 500 nl/min. Extracted ion mass windows for the calculated m/z values of the most dominant charge states were used to search for both the parent compound and the theoretical hydrolyzed products within a given chromatogram. Exact mass was confirmed for each charge state by FT. The percentage of hydrolysis catalyzed by DPP-IV was estimated by dividing the area of product ions by the area of the total (parent+product) ions.
The estimated cleavage product conversion is based on the ratio of the ion extract area (indicated on top of the peaks) for [product ion]^5+ over that for total ions ([Mother Ion]^5++[product ion]^5+). The m/z ratios used to search for the expected ions are listed on the right side of the plots.

A further data set deals with NIH/Swiss mice. Kind of data set: Oral glucose tolerance test (OGTT), glucose lowering. The note with it: IP; for glucose lowering in OGTT (FIGS. 7, 8): 2 hour fasted mice.
For data set [2] the following is noted: human, kidney or brush border membranes, 4 h, pH 7.4.
Method: The tubes were incubated in VorTemp 56™ (Eurotech Labs, UK) at 37° C. vortexed at 500 RPM. At time points of 0, 1, 2, 3, 4, and 5 hours, 200 μl STOP solution (50% ACN, 1% formic acid) was added to a given tube, and the samples were allowed to incubate until the end of the experiment. The samples were collected after 5 hours, centrifuged, and 200 μl of the supernatants were transferred into mass spectrometry vials. The intensities of the mother ions in each vial were analyzed with API 150EX™ mass spectrometer (Applied Biosystems, Foster City, Calif.) and quantified using the ANALYST™ program.
The hKBBM assay was also performed in the presence of valinepyrrolidide, a DPP-IV inhibitor.
The target in data set [3] is T1, Recombinant DPP-IV. On the set-up: purchased Chemicon International, Inc., Temecula, Calif. As to conditions: Leiting et al. (2003); read-out: DPP-IV IC50, published value; cited from earlier work.

Here are results for five compounds from patent US8759295B2, “Peptide-peptidase inhibitor conjugates and methods of using same” (Amylin Pharmaceuticals, LLC, priority 2006, dated 2014).

Read-outs that look alike come from different tables or passages of the source.

T1 sequence (P27487 whole entry, species assumed, the tested form may be a part): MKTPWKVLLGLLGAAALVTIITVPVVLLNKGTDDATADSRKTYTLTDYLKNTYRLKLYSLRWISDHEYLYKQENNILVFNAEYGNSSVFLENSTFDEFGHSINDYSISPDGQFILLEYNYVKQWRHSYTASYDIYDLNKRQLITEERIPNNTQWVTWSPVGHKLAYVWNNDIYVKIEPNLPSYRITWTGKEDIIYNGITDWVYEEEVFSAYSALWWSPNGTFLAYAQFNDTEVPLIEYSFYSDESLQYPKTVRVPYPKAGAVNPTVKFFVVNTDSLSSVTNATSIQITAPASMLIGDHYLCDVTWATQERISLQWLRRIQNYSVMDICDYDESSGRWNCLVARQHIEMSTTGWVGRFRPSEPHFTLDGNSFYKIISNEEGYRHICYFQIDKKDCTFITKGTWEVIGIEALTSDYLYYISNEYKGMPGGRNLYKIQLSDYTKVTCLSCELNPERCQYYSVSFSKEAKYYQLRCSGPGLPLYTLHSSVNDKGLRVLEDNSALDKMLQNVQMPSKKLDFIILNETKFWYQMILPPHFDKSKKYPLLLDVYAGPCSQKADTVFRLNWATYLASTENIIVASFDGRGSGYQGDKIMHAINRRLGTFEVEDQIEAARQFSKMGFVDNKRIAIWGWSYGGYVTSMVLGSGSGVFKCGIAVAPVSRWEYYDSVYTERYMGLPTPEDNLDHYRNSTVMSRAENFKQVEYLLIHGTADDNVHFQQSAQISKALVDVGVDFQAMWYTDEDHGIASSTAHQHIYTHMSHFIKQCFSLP

As to `CC[C@H](C)[C@H](NC(=O)[C@H](Cc1ccccc1)NC(=O)[C@H](CCC(=O)O)NC(=O)[C@H](CCCCN)NC(=O)[C@H](C)NC(=O)[C@H](C)NC(=O)[C@H](CCC(N)=O)NC(=O)CNC(=O)[C@H](CCC(=O)O)NC(=O)[C@H](CC(C)C)NC(=O)[C@H](Cc1ccc(O)cc1)NC(=O)[C@H](CO)NC(=O)[C@H](CO)NC(=O)[C@@H](NC(=O)[C@H](CC(=O)O)NC(=O)[C@H](CO)NC(=O)[C@@H](NC(=O)[C@H](Cc1ccccc1)NC(=O)[C@@H](NC(=O)CNC(=O)[C@H](CCC(=O)O)NC(=O)[C@H](C)NC(=O)[C@@H](N)Cc1c[nH]cn1)[C@@H](C)O)[C@@H](C)O)C(C)C)C(=O)N[C@@H](C)C(=O)N[C@@H](Cc1c[nH]c2ccccc12)C(=O)N[C@@H](CC(C)C)C(=O)N[C@H](C(=O)N[C@@H](CCCCN)C(=O)NCC(=O)N[C@@H](CCCNC(=N)N)C(=O)NCC(=O)NCC(=O)NCC(=O)NCCCC[C@H](N)C(=O)N1CCSC1)C(C)C` [Compound 4844, GLP-1-(7-37)-GG-(S)-2,6-diamino-1-(thiazolidin-3-yl)hexan-1-one amide], the “DPP-IV catalyzed cleavage product ions” value with Recombinant DPP-IV [1] (incubation with DPP-IV) is on record as “expected product ions were not observed”. Turning to `CC[C@H](C)[C@H](NC(=O)[C@H](Cc1ccccc1)NC(=O)[C@H](CCC(=O)O)NC(=O)[C@H](CCCCN)NC(=O)[C@H](C)NC(=O)[C@H](C)NC(=O)[C@H](CCC(N)=O)NC(=O)CNC(=O)[C@H](CCC(=O)O)NC(=O)[C@H](CC(C)C)NC(=O)[C@H](Cc1ccc(O)cc1)NC(=O)[C@H](CO)NC(=O)[C@H](CO)NC(=O)[C@@H](NC(=O)[C@H](CC(=O)O)NC(=O)[C@H](CO)NC(=O)[C@@H](NC(=O)[C@H](Cc1ccccc1)NC(=O)[C@@H](NC(=O)CNC(=O)[C@H](CCC(=O)O)NC(=O)[C@H](C)NC(=O)[C@@H](N)Cc1c[nH]cn1)[C@@H](C)O)[C@@H](C)O)C(C)C)C(=O)N[C@@H](C)C(=O)N[C@@H](Cc1c[nH]c2ccccc12)C(=O)N[C@@H](CC(C)C)C(=O)N[C@H](C(=O)N[C@@H](CCCCN)C(=O)NCC(=O)N[C@@H](CCCNC(=N)N)C(=O)NCC(=O)NCC(=O)NCC(=O)NCCCC[C@H](N)C(=O)N1CCSC1C#N)C(C)C` (stereo partly drawn) [Compound 4845, GLP-1-(7-37)-GG-(S)-2,6-diamino-1-(thiazolidin-2-cyano-3-yl)hexan-1-one amide], the “DPP-IV catalyzed cleavage product ions” value with Recombinant DPP-IV [1] is given as “expected product ions were not observed”. For the compound `CC[C@H](C)[C@H](NC(=O)[C@H](Cc1ccccc1)NC(=O)[C@H](CCC(=O)O)NC(=O)[C@H](CCCCN)NC(=O)[C@H](C)NC(=O)[C@H](C)NC(=O)[C@H](CCC(N)=O)NC(=O)CNC(=O)[C@H](CCC(=O)O)NC(=O)[C@H](CC(C)C)NC(=O)[C@H](Cc1ccc(O)cc1)NC(=O)[C@H](CO)NC(=O)[C@H](CO)NC(=O)[C@@H](NC(=O)[C@H](CC(=O)O)NC(=O)[C@H](CO)NC(=O)[C@@H](NC(=O)[C@H](Cc1ccccc1)NC(=O)[C@@H](NC(=O)CNC(=O)[C@H](CCC(=O)O)NC(=O)[C@H](C)NC(=O)[C@H](Cc1c[nH]cn1)NC(=O)COCCOCCNC(=O)[C@@H]1CCCN1C(=O)[C@H](C)NC(CCc1ccccc1)C(=O)O)[C@@H](C)O)[C@@H](C)O)C(C)C)C(=O)N[C@@H](C)C(=O)N[C@@H](Cc1c[nH]c2ccccc12)C(=O)N[C@@H](CC(C)C)C(=O)N[C@H](C(=O)N[C@@H](CCCCN)C(=O)NCC(=O)N[C@@H](CCCNC(=N)N)C(N)=O)C(C)C` (stereo partly drawn) [Compound 4983, (R,S)-1-[N^2-(1-carboxy-3-phenylpropyl)-L-ala]-L-pro-8-amino-3,6-dioxaoctanoyl-GLP-1-(7-36) amide], the “glucose lowering in OGTT (FIGS. 7, 8)” value in the data set on NIH/Swiss mice is “retain the glucose-lowering activity of GLP-1”. In data set [2], the “intact conjugate compound present” value is recorded as “greater than 80%”. `CC[C@H](C)[C@H](NC(=O)[C@H](Cc1ccccc1)NC(=O)[C@H](CCC(=O)O)NC(=O)[C@H](CCCCN)NC(=O)[C@H](C)NC(=O)[C@H](C)NC(=O)[C@H](CCC(N)=O)NC(=O)CNC(=O)[C@H](CCC(=O)O)NC(=O)[C@H](CC(C)C)NC(=O)[C@H](Cc1ccc(O)cc1)NC(=O)[C@H](CO)NC(=O)[C@H](CO)NC(=O)[C@@H](NC(=O)[C@H](CC(=O)O)NC(=O)[C@H](CO)NC(=O)[C@@H](NC(=O)[C@H](Cc1ccccc1)NC(=O)[C@@H](NC(=O)CNC(=O)[C@H](CCC(=O)O)NC(=O)[C@H](C)NC(=O)[C@H](Cc1c[nH]cn1)NC(=O)COCCOCCNC(=O)COCCOCCNC(=O)[C@@H]1CCCN1C(=O)[C@H](C)NC(CCc1ccccc1)C(=O)O)[C@@H](C)O)[C@@H](C)O)C(C)C)C(=O)N[C@@H](C)C(=O)N[C@@H](Cc1c[nH]c2ccccc12)C(=O)N[C@@H](CC(C)C)C(=O)N[C@H](C(=O)N[C@@H](CCCCN)C(=O)NCC(=O)N[C@@H](CCCNC(=N)N)C(N)=O)C(C)C` (stereo partly drawn) [Compound 4984, (R,S)-1-[N^2-(1-carboxy-3-phenylpropyl)-L-ala]-L-pro-8-amino-3,6-dioxaoctanoyl-8-amino-3,6-dioxaoctanoyl-GLP-1-(7-36) amide]: the “glucose lowering in OGTT (FIGS. 7, 8)” value in the data set with NIH/Swiss mice is on record as “retain the glucose-lowering activity of GLP-1”. The “duration of glucose lowering in OGTT” value in the data set with NIH/Swiss mice (240 minutes sample) was “prolonged effect 4 hours after dosing”. In addition, the “intact conjugate compound present” value in data set [2] is “greater than 80%”. One may read the IC50 as the concentration at which inhibition is half-maximal. As for `CCC(C)C(N)C(=O)N1CCCC1C(=O)NC(C(=O)O)C(C)CC` (stereo not drawn) [Diprotin A, Ile-Pro-Ile], the IC50 at Recombinant DPP-IV [3] is 3.5 µM.
